Assay results: patent publication US20120316071A1 (published 2012)
Each block holds one binder with its values, some of them ahead of it.

Experiments:
[1] = biological target: T1, rHuman CD44/Fc Chimera, CF (R&D Systems Cat#3660-CD) (human, UniProt P16070 21-220); assay: ECL Multispot (MSD) assay, antigen spotted on plate, 10 nM Fab; blank spot of this row 472
T1 construct: Bought reagent; Fc part of the bought chimera not given

[2] = biological target: T2, rHuman Notch-1/Fc Chimera, CF (R&D Systems Cat#3647-TK) (human, UniProt P46531 19-526); assay: as above
T2 construct: Bought reagent; Fc part of the bought chimera not given

[3] = biological target: T3, rHuman HGF R/c-MET/Fc Chimera, CF (R&D Systems Cat#358-MT/CF) (human, UniProt P08581 25-932); assay: as above
T3 construct: Bought reagent; also called HGF R/Fc; hepatocyte growth factor receptor; Fc part of the bought chimera not given

[4] = biological target: T4, rHuman ErbB2/Fc Chimera, CF (R&D Systems Cat#1129-ER) (human, UniProt P04626 23-652); assay: MSD multispot ECL, antigen spotted on plate, Fab 1410 nM; blank spot 709
T4 construct: Bought from R&D Systems; also called human epidermal growth factor 2 receptor (ErbB2); not shown: Fc of the bought chimera

[5] = biological target: T5, rHuman P-Cadherin/Fc Chimera, CF (R&D Systems Cat#861-PC) (human, UniProt P22223 108-654); assay: as above
T5 construct: Bought from R&D Systems; not shown: Fc of the bought chimera

[6] = biological target: T6, rHuman IGF-1 sR, (IGF-1 sR), CF (R&D Systems Cat#391-GR) (human, UniProt P08069 31-932); assay: as above
T6 construct: Bought from R&D Systems and called a soluble receptor; also called insulin-like growth factor-1 soluble receptor

[7] = biological target: T7, rHuman Notch-1/Fc Chimera, CF (R&D Systems Cat#3647-TK) (human, UniProt P46531 19-526); assay: as above
T7 construct: Bought from R&D Systems; not shown: Fc of the bought chimera

[8] = biological target: T8, rHuman Erythropoietin R/Fc Chimera, CF (R&D Systems Cat#963-ER) (human, UniProt P19235 25-250); assay: as above
T8 construct: Bought from R&D Systems; also called EPO R/Fc; Epo R/Fc chimera; not shown: Fc of the bought chimera
T8 sequence (looked up): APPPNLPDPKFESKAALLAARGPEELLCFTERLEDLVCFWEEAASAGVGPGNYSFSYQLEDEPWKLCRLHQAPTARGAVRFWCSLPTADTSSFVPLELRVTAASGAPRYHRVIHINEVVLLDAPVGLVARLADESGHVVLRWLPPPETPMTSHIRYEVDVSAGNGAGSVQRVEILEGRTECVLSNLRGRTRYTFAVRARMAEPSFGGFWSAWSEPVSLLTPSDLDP

[9] = biological target: T9, rHuman HGF R/c-MET/Fc Chimera, CF (R&D Systems Cat#358-MT/CF) (human, UniProt P08581 25-932); assay: as above
T9 construct: Bought from R&D Systems; also called HGF R/Fc; hepatocyte growth factor receptor (HGF R/c-Met); not shown: Fc of the bought chimera

[10] = biological target: T10, rHuman EGF R/Fc Chimera, CF (R&D Systems Cat#344-ER) (human, UniProt P00533 25-645); assay: as above
T10 construct: Bought from R&D Systems; also called epidermal growth factor receptor (EGF R); not shown: Fc of the bought chimera

[11] = biological target: T11, rHuman CD44/Fc Chimera, CF (R&D Systems Cat#3660-CD) (human, UniProt P16070 21-220); assay: as above
T11 construct: Bought from R&D Systems; not shown: Fc of the bought chimera

[12] = biological target: T12, Recombinant Human DLL4 (R&D Systems Cat#1506-D4/CF) (human, UniProt Q9NR61 27-524); assay: as above
T12 construct: Bought from R&D Systems; also called rHuman DLL4; delta-like protein 4

[13] = biological target: T13, rHuman Erythropoietin R/Fc Chimera, CF (R&D Systems Cat#963-ER) (human, UniProt P19235 25-250); assay: Multispot ECL (MSD) titration; antigen spotted on plate; Fab 98.1 nM; blank spot 210
T13 construct: Bought Fc chimera; also called EPO R/Fc; EPO R; Fc part of the bought chimera not given
T13 sequence (looked up): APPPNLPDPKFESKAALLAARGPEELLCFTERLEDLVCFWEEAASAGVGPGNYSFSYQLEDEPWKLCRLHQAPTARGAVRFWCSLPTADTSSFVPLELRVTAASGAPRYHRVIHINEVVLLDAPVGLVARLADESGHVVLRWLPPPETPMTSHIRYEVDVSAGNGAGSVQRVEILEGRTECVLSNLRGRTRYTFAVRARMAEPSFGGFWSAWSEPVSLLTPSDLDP

[14] = biological target: T14, Recombinant Human DLL4 (R&D Systems Cat#1506-D4/CF) (human, UniProt Q9NR61 27-524); assay: as above
T14 construct: Bought recombinant protein; also called delta-like protein 4; rHuman DLL4

[15] = biological target: T15, rHuman P-Cadherin/Fc Chimera, CF (R&D Systems Cat#861-PC) (human, UniProt P22223 108-654); assay: as above
T15 construct: Bought Fc chimera; Fc part of the bought chimera not given

[16] = biological target: T16, rHuman Notch-1/Fc Chimera, CF (R&D Systems Cat#3647-TK) (human, UniProt P46531 19-526); assay: as above
T16 construct: Bought Fc chimera; Fc part of the bought chimera not given

[17] = biological target: T17, rHuman IGF-1 sR (IGF-1 sR), CF (R&D Systems Cat#391-GR) (human, UniProt P08069 31-932); assay: as above
T17 construct: Bought soluble receptor; also called insulin-like growth factor-1 soluble receptor

[18] = biological target: T18, rHuman ErbB2/Fc Chimera, CF (R&D Systems Cat#1129-ER) (human, UniProt P04626 23-652); assay: as above
T18 construct: Bought Fc chimera; also called human epidermal growth factor 2 receptor; Fc part of the bought chimera not given

ECL signal [1]: 400
ECL signal [2]: 299
ECL signal [3]: 426
B1: Fab VH1-46_IGHD6-6*01_IGHJ1*01 S102A/S103P/S104F (APF) & L6_IGKJ1*01 (Fab, V domains shown)
VH: QVQLVQSGAEVKKPGASVKVSCKASGYTFTSYYMHWVRQAPGQGLEWMGIINPSGGSTSYAQKFQGRVTMTRDTSTSTVYMELSSLRSEDTAVYYCAREEYAPFSAEYFQHWGQGTLVTVSS
VL: not shown
notes: Tested as a Fab made in E. coli; also called H:APF & L:wt; APF triple mutant

ECL signal [4]: 932
ECL signal [5]: 1060
ECL signal [6]: 426
ECL signal [7]: 1030
ECL signal [8]: 4310
ECL signal [9]: 903
ECL signal [10]: 1070
ECL signal [11]: 885
ECL signal [12]: 1260
B2: Fab VH1-46_IGHD3-10*01_IGHJ4*01 & B3_IGKJ1*01 (Fab, V domains shown)
VH: QVQLVQSGAEVKKPGASVKVSCKASGYTFTSYYMHWVRQAPGQGLEWMGIINPSGGSTSYAQKFQGRVTMTRDTSTSTVYMELSSLRSEDTAVYYCAREYYYGSGSYYNDYFDYWGQGTLVTVSS
VL: not shown
notes: Tested as a Fab made in E. coli; VH was cloned into Plasmid A (CH1 constant region, His6 and Flag tags); The kappa VL was cloned into Plasmid C (kappa CL)

ECL signal [13]: 5630
ECL signal [14]: 402
ECL signal [15]: 347
ECL signal [16]: 313
ECL signal [17]: 309
ECL signal [18]: 247
B3: Fab VH1-46_IGHD3-10*01_IGHJ4*01 & O1_IGKJ1*01 (Fab, V domains shown)
VH: QVQLVQSGAEVKKPGASVKVSCKASGYTFTSYYMHWVRQAPGQGLEWMGIINPSGGSTSYAQKFQGRVTMTRDTSTSTVYMELSSLRSEDTAVYYCAREYYYGSGSYYNDYFDYWGQGTLVTVSS
VL: DIVMTQTPLSLPVTPGEPASISCRSSQSLLDSDDGNTYLDWYLQKPGQSPQLLIYTLSYRASGVPDRFSGSGSGTDFTLKISRVEAEDVGVYYCMQRIEFPSWTFGQGTKVEIKR
notes: Germline library Fab expressed in E. coli; VH was cloned into Plasmid A (CH1 constant region, His6 and Flag tags); The kappa VL was cloned into Plasmid C (kappa CL)
